From patent US20230287118A1 (published 2023)
Values belong to the binder of their own block, whether it stands above or below them.

Tests used:
Assay in all cases: cell-based or functional assay
[1] = target: T1, human CD20 (human, UniProt P11836 1-297)
T1 sequence (looked up): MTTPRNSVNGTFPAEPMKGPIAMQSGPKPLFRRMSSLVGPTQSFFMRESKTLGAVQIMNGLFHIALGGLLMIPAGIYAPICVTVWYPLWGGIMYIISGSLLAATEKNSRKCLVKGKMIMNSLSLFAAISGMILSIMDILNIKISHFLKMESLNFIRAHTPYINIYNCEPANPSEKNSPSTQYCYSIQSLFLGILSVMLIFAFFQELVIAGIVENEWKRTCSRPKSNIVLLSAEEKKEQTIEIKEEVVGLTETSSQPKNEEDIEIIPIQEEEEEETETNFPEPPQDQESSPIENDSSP

[2] = target: T1, human CD20; remark: listed apart in the source
[3] = target: T1, human CD20; remark: listed apart in the source
[4] = target: T1, human CD20; remark: listed apart in the source
[5] = target: T2, human CD3 (human, UniProt P07766 23-207)
[6] = target: human Her3 (human, UniProt P21860 20-1342)
[7] = target: T2, human CD3; remark: listed apart in the source

B1: anti-CD20/anti-CD3 TCB molecule H: "1+1 CrossMab" with charge modifications (VH/VL exchange in CD3 binder, charge modification in CD20 binder) (bispecific antibody, human IgG1, kappa, N297G)
heavy 1: not shown
heavy 2: QAVVTQEPSLTVSPGGTVTLTCGSSTGAVTTSNYANWVQEKPGQAFRGLIGGTNKRAPGTPARFSGSLLGGKAALTLSGAQPEDEAEYYCALWYSNLWVFGGGTKLTVLSSASTKGPSVFPLAPSSKSTSGGTAALGCLVKDYFPEPVTVSWNSGALTSGVHTFPAVLQSSGLYSLSSVVTVPSSSLGTQTYICNVNHKPSNTKVDKKVEPKSCDKTHTCPPCPAPELLGGPSVFLFPPKPKDTLMISRTPEVTCVVVDVSHEDPEVKFNWYVDGVEVHNAKTKPREEQYGSTYRVVSVLTVLHQDWLNGKEYKCKVSNKALPAPIEKTISKAKGQPREPQVYTLPPCRDELTKNQVSLWCLVKGFYPSDIAVEWESNGQPENNYKTTPPVLDSDGSFFLYSKLTVDKSRWQQGNVFSCSVMHEALHNHYTQKSLSLSP
light 1: DIVMTQTPLSLPVTPGEPASISCRSSKSLLHSNGITYLYWYLQKPGQSPQLLIYQMSNLVSGVPDRFSGSGSGTDFTLKISRVEAEDVGVYYCAQNLELPYTFGGGTKVEIKRTVAAPSVFIFPPSDRKLKSGTASVVCLLNNFYPREAKVQWKVDNALQSGNSQESVTEQDSKDSTYSLSSTLTLSKADYEKHKVYACEVTHQGLSSPVTKSFNRGEC
light 2: EVQLLESGGGLVQPGGSLRLSCAASGFTFSTYAMNWVRQAPGKGLEWVSRIRSKYNNYATYYADSVKGRFTISRDDSKNTLYLQMNSLRAEDTAVYYCVRHGNFGNSYVSWFAYWGQGTLVTVSSASVAAPSVFIFPPSDEQLKSGTASVVCLLNNFYPREAKVQWKVDNALQSGNSQESVTEQDSKDSTYSLSSTLTLSKADYEKHKVYACEVTHQGLSSPVTKSFNRGEC
EC50 24 h of tumor lysis, Ocly-18 cells [1]: 0.25 nM | EC50 24 h of tumor lysis, SU-DHL-5 cells [1]: 0.0697 nM | EC50 24 h of tumor lysis, SU-DHL-8 cells [1]: 0.219 nM | EC50 24 h of tumor lysis, Toledo cells [1]: 0.12 nM | EC50 24 h of tumor lysis, U2932 cells [1]: 0.0727 nM | EC50 of tumor cell lysis (LDH release), Z138 cells + human PBMCs, 21-24 h, panel A [2]: 0.0175 nM | EC50 24 h of B cell depletion in normal human whole blood [3]: 3.75 nM | EC50 24 h of CD4 T cell activation, Z138 cells (average of 3 donors) [4]: 0.122 nM | EC50 24 h of CD8 T cell activation, Z138 cells (average of 3 donors) [4]: 0.175 nM | EC50 24 h of tumor lysis, Z138 cells (average of 3 donors) [4]: 0.751 nM | EC50 of CD3 activation, Jurkat-NFAT reporter cells co-cultured with Z138 cells (luminescence, 6 h) [5]: 1 nM

B3: anti-CD20/anti-CD3 TCB molecule C: "2+1 IgG CrossFab" with charge modifications (VH/VL exchange in CD3 binder, charge modification in CD20 binders) (bispecific antibody)
heavy 1: not shown
heavy 2: QVQLVQSGAEVKKPGSSVKVSCKASGYAFSYSWINWVRQAPGQGLEWMGRIFPGDGDTDYNGKFKGRVTITADKSTSTAYMELSSLRSEDTAVYYCARNVFDGYWLVYWGQGTLVTVSSASTKGPSVFPLAPSSKSTSGGTAALGCLVEDYFPEPVTVSWNSGALTSGVHTFPAVLQSSGLYSLSSVVTVPSSSLGTQTYICNVNHKPSNTKVDEKVEPKSCDKTHTCPPCPAPEAAGGPSVFLFPPKPKDTLMISRTPEVTCVVVDVSHEDPEVKFNWYVDGVEVHNAKTKPREEQYNSTYRVVSVLTVLHQDWLNGKEYKCKVSNKALGAPIEKTISKAKGQPREPQVCTLPPSRDELTKNQVSLSCAVKGFYPSDIAVEWESNGQPENNYKTTPPVLDSDGSFFLVSKLTVDKSRWQQGNVFSCSVMHEALHNHYTQKSLSLSP
light 1: DIVMTQTPLSLPVTPGEPASISCRSSKSLLHSNGITYLYWYLQKPGQSPQLLIYQMSNLVSGVPDRFSGSGSGTDFTLKISRVEAEDVGVYYCAQNLELPYTFGGGTKVEIKRTVAAPSVFIFPPSDRKLKSGTASVVCLLNNFYPREAKVQWKVDNALQSGNSQESVTEQDSKDSTYSLSSTLTLSKADYEKHKVYACEVTHQGLSSPVTKSFNRGEC
light 2: EVQLLESGGGLVQPGGSLRLSCAASGFTFSTYAMNWVRQAPGKGLEWVSRIRSKYNNYATYYADSVKGRFTISRDDSKNTLYLQMNSLRAEDTAVYYCVRHGNFGNSYVSWFAYWGQGTLVTVSSASVAAPSVFIFPPSDEQLKSGTASVVCLLNNFYPREAKVQWKVDNALQSGNSQESVTEQDSKDSTYSLSSTLTLSKADYEKHKVYACEVTHQGLSSPVTKSFNRGEC
EC50 of tumor cell lysis (LDH release), Z138 cells + human PBMCs, 21-24 h, panel B [2]: 0.0433 nM

B5: anti-CD20/anti-CD3 TCB molecule A: "2+1 IgG CrossFab, inverted" without charge modifications (CH1/CL exchange in CD3 binder) (bispecific antibody)
chain 1: not shown
chain 2: QVQLVQSGAEVKKPGSSVKVSCKASGYAFSYSWINWVRQAPGQGLEWMGRIFPGDGDTDYNGKFKGRVTITADKSTSTAYMELSSLRSEDTAVYYCARNVFDGYWLVYWGQGTLVTVSSASTKGPSVFPLAPSSKSTSGGTAALGCLVKDYFPEPVTVSWNSGALTSGVHTFPAVLQSSGLYSLSSVVTVPSSSLGTQTYICNVNHKPSNTKVDKKVEPKSCDKTHTCPPCPAPEAAGGPSVFLFPPKPKDTLMISRTPEVTCVVVDVSHEDPEVKFNWYVDGVEVHNAKTKPREEQYNSTYRVVSVLTVLHQDWLNGKEYKCKVSNKALGAPIEKTISKAKGQPREPQVCTLPPSRDELTKNQVSLSCAVKGFYPSDIAVEWESNGQPENNYKTTPPVLDSDGSFFLVSKLTVDKSRWQQGNVFSCSVMHEALHNHYTQKSLSLSP
chain 3: QAVVTQEPSLTVSPGGTVTLTCGSSTGAVTTSNYANWVQEKPGQAFRGLIGGTNKRAPGTPARFSGSLLGGKAALTLSGAQPEDEAEYYCALWYSNLWVFGGGTKLTVLSSASTKGPSVFPLAPSSKSTSGGTAALGCLVKDYFPEPVTVSWNSGALTSGVHTFPAVLQSSGLYSLSSVVTVPSSSLGTQTYICNVNHKPSNTKVDKKVEPKSC
chain 4: DIVMTQTPLSLPVTPGEPASISCRSSKSLLHSNGITYLYWYLQKPGQSPQLLIYQMSNLVSGVPDRFSGSGSGTDFTLKISRVEAEDVGVYYCAQNLELPYTFGGGTKVEIKRTVAAPSVFIFPPSDEQLKSGTASVVCLLNNFYPREAKVQWKVDNALQSGNSQESVTEQDSKDSTYSLSSTLTLSKADYEKHKVYACEVTHQGLSSPVTKSFNRGEC
EC50 of tumor cell lysis (LDH release), Z138 cells + human PBMCs, 21-24 h, panel A [2]: 0.00076 nM

Now from value to binder:

EC50 of Caspase 3/7 activity (luminescence) in KPL-4-Caspase-3/7 GloSensor target cells + PBMCs, 6.5 h [6]: 0.0007 nM | EC50 of tumor cell lysis (LDH release), KPL4 cells + human PBMCs, 24 h [6]: 0.00254 nM | EC50 of tumor cell lysis (LDH release), KPL4 cells + human PBMCs, 48 h [6]: 0.00053 nM | EC50 of activation of Jurkat-NFAT reporter cells co-cultured with KPL4 cells (luminescence, 5 h) [7]: 0.022 nM
B2: anti-Her3/anti-CD3 "2+1 IgG CrossFab" molecule with charge modifications (Her3 TCB) (bispecific antibody)
chain 1: not shown
chain 2: QVQLVQSGAEVKKPGASVKVSCKASGYTFRSSYISWVRQAPGQGLEWMGWIYAGTGSPSYNQKLQGRVTMTTDTSTSTAYMELRSLRSDDTAVYYCARHRDYYSNSLTYWGQGTLVTVSSASTKGPSVFPLAPSSKSTSGGTAALGCLVEDYFPEPVTVSWNSGALTSGVHTFPAVLQSSGLYSLSSVVTVPSSSLGTQTYICNVNHKPSNTKVDEKVEPKSCDKTHTCPPCPAPEAAGGPSVFLFPPKPKDTLMISRTPEVTCVVVDVSHEDPEVKFNWYVDGVEVHNAKTKPREEQYNSTYRVVSVLTVLHQDWLNGKEYKCKVSNKALGAPIEKTISKAKGQPREPQVCTLPPSRDELTKNQVSLSCAVKGFYPSDIAVEWESNGQPENNYKTTPPVLDSDGSFFLVSKLTVDKSRWQQGNVFSCSVMHEALHNHYTQKSLSLSP
chain 3: not shown
light: EVQLLESGGGLVQPGGSLRLSCAASGFTFSTYAMNWVRQAPGKGLEWVSRIRSKYNNYATYYADSVKGRFTISRDDSKNTLYLQMNSLRAEDTAVYYCVRHGNFGNSYVSWFAYWGQGTLVTVSSASVAAPSVFIFPPSDEQLKSGTASVVCLLNNFYPREAKVQWKVDNALQSGNSQESVTEQDSKDSTYSLSSTLTLSKADYEKHKVYACEVTHQGLSSPVTKSFNRGEC

EC50 of activation of Jurkat-NFAT reporter cells co-cultured with KPL4 cells (luminescence, 5 h) [7]: 0.0344 nM
B4: anti-Her2/anti-CD3 "2+1 IgG CrossFab, inverted" molecule with charge modifications (Her2 TCB) (bispecific antibody)
chain 1: not shown
chain 2: not shown
chain 3: not shown
light: EVQLLESGGGLVQPGGSLRLSCAASGFTFSTYAMNWVRQAPGKGLEWVSRIRSKYNNYATYYADSVKGRFTISRDDSKNTLYLQMNSLRAEDTAVYYCVRHGNFGNSYVSWFAYWGQGTLVTVSSASVAAPSVFIFPPSDEQLKSGTASVVCLLNNFYPREAKVQWKVDNALQSGNSQESVTEQDSKDSTYSLSSTLTLSKADYEKHKVYACEVTHQGLSSPVTKSFNRGEC
